From patent US7230085B2, “Anti-DOTA antibody” (Immunomedics, Inc., priority 2001, dated 2007)
Where “and” joins values, the source holds several entries; their conditions need not be identical. Equal values may be shown once. Entries after “also recorded” stand apart in the source; their conditions may differ.

Assays:
hLL2-DOTA = experiment: Qualitative binding on size-exclusion HPLC; conditions: SE-HPLC
From the text: (§1) The msAb, LG1×hMN-14 (Fab′×Fab) is shown by the same analysis to bind to hLL2-DOTA-yttrium.

hLL2-DOTA-yttrium = experiment: Qualitative binding on size-exclusion HPLC; conditions: SE-HPLC
From the text: as §1

hLL2 [1] = experiment: Qualitative binding on size-exclusion HPLC; conditions: SE-HPLC
From the text: as §1

[2] = Isoelectric focusing of purified LG1; type: physicochemical
Description: LG1 cells are expanded and adapted to grow in H-SFM media in serum-free conditions. The antibody LG1 is isolated from the culture media by affinity chromatography on Protein G Sepharose with a yield of ^˜50 mg of IgG per liter of culture media. The purified antibody is analyzed by SDS polyacrylamide electrophoresis, isoelectric focusing, and its isotype is determined by ELISA with a commercially available kit (Southern Biotechnology, Birmingham, Ala.).

hLL2 [3] = experiment: ELISA binding of LG1 to hLL2
Description: (§2) LG1 is tested by ELISA for binding to hLL2 and a panel of different metal complexes of DOTA-hLL2. The capture proteins are diluted to 10 μg/ml, and dilutions of LG1 are assayed. Binding is shown using a peroxidase-conjugated goat anti-mouse IgG Fc specific antibody.

[4] = test system: indium-111-DOTA-Phe-Lys(HSG)-D-Tyr-Lys(HSG)-NH2; experiment: Qualitative binding on size-exclusion HPLC
From the text: (§3) To determine the essential features that are important to elicit LG1 binding, labeled DOTA (indium-111) was linked to a hapten, via lysine residues, on either the alpha (DOTA-Lys(HSG)-D-Tyr-Lys(HSG)-NH2) or epsilon (biotin-D-Phe-D-Lys[DOTA]) positions of one of the DOTA carboxy groups. LG1 did bind the epsilon-linked indium-DOTA, but not the alpha-linked indium DOTA. […] Thus, the antibody of the current invention is “universal” in that it may bind to any DOTA-metal complex with a pendant N-alkylacetamide group, regardless of the type of metal with which DOTA is complexed. As used herein, the phrases “universal anti-DOTA antibody” or “universally binds” are used to mean an antibody that binds to any DOTA or DOTA-metal complex with a pendant N-alkylacetamide group.
as §1

[5] = test system: biotin-D-Phe-D-Lys(DOTA-indium-111); experiment: Qualitative binding on size-exclusion HPLC; conditions: epsilon-linked indium-DOTA
From the text: as §3, §1

hMN-14-DOTA-yttrium-90 = experiment: Qualitative binding on size-exclusion HPLC; conditions: SE-HPLC
indium-DOTA alone = experiment: LG1 binding to indium-DOTA alone
From the text: as §3

[6] = test system: metal complexes of DOTA-hLL2; experiment: ELISA binding of LG1 to DOTA-hLL2 metal complexes
Description: Immunocompetent mice were immunized mice with the macrocyclic chelate DOTA, previously coupled to a humanized immunoglobulin (hIgG). A number of mice were injected and the harvested splenocytes fused with the mouse myeloma cell line SP2/0, according to a standard technique. A total of 1800 clones were screened by ELISA for reactivity with DOTA-conjugated hIgG and hIgG alone. Initially, 25 clones were identified as secreting an IgG that bound to the IgG-DOTA conjugate, but not to the IgG. After being sub-cloned three times, only one hybrid, termed LG1, remained positive and this was adapted to grow in serum-free media. […] LG1 was purified from culture supernatant with a yield of ^˜50 mg/liter of media. […] These metals include gadolinium, gallium, indium, lead, lutetium and yttrium. Additionally, LG1 has a high affinity for a variety of DOTA compounds, showing strong reactivity starting at concentrations of ^˜1 ng/mL (^˜10^−9M), compared to previously produced anti-DOTA antibodies that had affinities measured in microgram amounts.
as §2

BSA-DOTA-Yttrium = experiment: Inhibition of LG1 binding to BSA-DOTA-Yttrium by hLL2-DOTA metal complexes (ELISA); conditions: LG1 0.1 μg/ml; inhibitors 10 to 0.0001 μg/ml
Description: The binding of LG1 to BSA-DOTA-Yttrium is also tested in the presence of a panel of hLL2-DOTA metal complexes by incubating LG1 at concentration 0.1 μg/ml with hLL2 and the DOTA-hLL2 conjugates, at concentration 10 to 0.0001 μg/ml, and then adding to ELISA plates coated with BSA-DOTA-Yttrium.

B1: LG1: murine monoclonal anti-DOTA antibody, IgG2b with a lambda light chain (antibody, V domains shown)
VH: EVMLVESGGGLVKPGGSLTLSCAASGFTFTAHAMSWVRQTPEKRLEWVATISGGGTYTYFPDSFQGRFTISSDNAKNTLYLQMSSLRSEDTSMYFCTRHGDYRYAFGYWGQGTLVTVSA
VL: VVTQESALTTSPGETVTLTCRSSSGAVTTNNYANWVQEKPDHLFTGLIGGTNNRAPGVPARFSGSLIGDKAALTITGAQTEDEAIYFCALWFSDHWVFGGGTELTVLG
- binding to hLL2-DOTA (hLL2-DOTA): positive binding
- binding to hLL2-DOTA-yttrium (hLL2-DOTA-yttrium): positive binding
- binding to hLL2 itself (hLL2 [1]): no binding
- PI [2]: 5.85-6.85
- binding to hLL2 (hLL2 [3]): no binding
- binding to alpha-amino-linked indium-111-DOTA peptide [4]: no binding and not
- binding to biotin-D-Phe-D-Lys(DOTA-indium-111) [5]: positive binding; also recorded: did bind
- binding to hMN-14-DOTA-yttrium-90 (hMN-14-DOTA-yttrium-90): positive binding
- binding to indium-DOTA alone (indium-DOTA alone): did not bind
- binding to DOTA-hLL2 and its metal complexes ([6]; ELISA, gadolinium, gallium, indium, lead, lutetium, yttrium and no metal): Equivalent binding; also recorded: Identical binding; also recorded: bind equally; also recorded: bind equivalently well; also recorded: binds to gadolinium-DOTA complexes as well as it binds to the yttrium-DOTA complexes
- concentration at which strong reactivity starts ([6]; ELISA, variety of DOTA compounds): ~1 ng/mL and ~10^−9 M
- Kd ([6]; estimated by ELISA method to determine ligand binding affinity, read-out: affinity towards many different metal-DOTA complexes): 1 to 100 pM
- specificity in inhibition assay (BSA-DOTA-Yttrium): anti-DOTA specific, independent of the metal being bound in the chelate ring
